From patent publication US20250259704A1, “SYSTEMS AND METHODS FOR CELL-FREE ITERATIVE SITE SATURATION MUTAGENESIS AND ITS APPLICATION FOR THE DIRECTED EVOLUTION OF ENZYMES CATALYZING UNNATURAL REACTIONS” (Northwestern University, priority 2022, published 2025)

Legend:
amide synthetase McbA [1] = test: High-throughput amidation assay with crude CFPS-expressed McbA variants (hot spot screen, ISM); assay type: biochemical, Marinactinospora thermotolerans; settings: final screening conditions; moclobemide synthesis; 25 mM ATP, acid, amine, 10% v/v DMSO, 37° C. 16 hours
Description: Amide products (along with acid substrates and some adenylated acid intermediates) were analyzed using an Agilent G6125B Single Quadrupole LC/MSD system equipped with an electrospray ionization source set to positive ionization mode. The quenched samples were centrifuged for 10 min at 4,500×g to remove precipitated proteins. A separate 384-well plate for sample injection into the HPLC-MS was prepared by diluting 5 μL of the quenched samples with 25 μL of methanol using the Integra VIAFLO. Trace amounts of compounds were detected using MS, while many compounds were present in high enough concentration to quantify by diode array detector (DAD) at 254 nm. Compounds were separated on a Luna C18 Column (Phenomenex 00D-4251-B0) using mobile phases (A) H2O with 0.1% formic acid and (B) Acetonitrile. The general method for chromatographic separation was carried out using the following gradients at a constant flow rate of 0.5 mL/min: 0 min 5% B; 1 min 5% B; 4 min 95% B; 4.5 min 95% B; 5 min 5% B. For the MS, capillary voltage was set at 3 kV, and nitrogen gas was used for nebulizing (35 psig) and drying (12 l/min, 350° C.). The MS was calibrated using Tuning Mix (Agilent G2421-60001) before measurements were taken. […] LC-MS data were collected and analyzed using Agilent OpenLab CDS ChemStation software. The product yield was calculated by dividing the DAD peak area for the amide product by the sums of the peak areas of both the amide and the acid substrate.
All high-throughput assays (hot spot screen, iterative site saturation mutagenesis, substrate scope, ML predictions validation, and ML prediction exploration) were assembled in 384-well plates (Bio-Rad) using an Integra VIAFLO liquid handling robot. […] The amidation assay was initiated by adding 3-μL of crude CFPS reaction containing an expressed McbA variant, with final concentrations of 25 mM ATP, 25 mM acid, 25 mM amine, 10% v/v DMSO, and ˜1 μM of enzyme (determined by ^14C-leucine incorporation using previously described protocols^66). […]

[2] = Protein melting temperature by circular dichroism; assay type: physicochemical
Description: Protein melting temperature was determined using a Jasco J-810 circular dichroism spectrophotometer with a 10 mm path length cuvette monitored at 222 nm. McbA samples were first buffer exchanged into a 1× phosphate buffered saline solution, pH 7.4, and diluted to 0.2-0.4 mg/mL.

amide synthetase McbA [3] = test: Apparent steady-state kinetics, amide bond formation coupled to NADH oxidation; assay type: biochemical, Marinactinospora thermotolerans; settings: kcat/KM for the amine, versus wt-McbA
Description: McbA apparent kinetics for the amine pair of moclobemide (4-(2-aminoethyl)morpholine) were determined by enzymatically coupling amide bond formation (and the concomitant release of AMP from the acyl-AMP intermediate by its substitution with the amine) with the oxidation of NADH, as shown in FIGS. 7A-7B. Reactions contained 100 mM MOPS-KOH pH 7.8, 5 mM MgCl2, 2.5 mM phosphoenolpyruvate, 5 mM ATP, 0.3 mM NADH, 50 mM 4-chlorobenzoic acid, 15 U/mL pyruvate kinase and lactate dehydrogenase enzyme mix (Sigma-Aldrich P0294), 25 U/mL myokinase (Sigma-Aldrich 475941), and various concentrations (50-200 μg/mL) of the studied McbA variant. As the acid here (4-chlorobenzoic acid) has poor solubility in water and was dissolved in DMSO, the final reactions contained 10% v/v DMSO (equivalent to our amidation screens). 180-μL reactions were first equilibrated at 30° C. for 3 minutes and then initiated by adding 20-μL of amine. The initial velocity was determined for different concentrations of amine (0.1 mM-50 mM) by measuring NADH absorbance at 340 nm on a Cary 60 UV-Vis (Agilent). Data were collected and analyzed using the Cary WinUV Kinetics Application software (Agilent). Michaelis-Menten graphs were plotted in GraphPad Prism and fit using the default Michaelis-Menten non-linear regression analysis tool.

B1: qm-McbAmoclobemide: quadruple mutant of McbA from ISM campaign for moclobemide, SEQ ID NO: 145 (protein)
chain: MEKKIWSHPQFEKGGSGENLYFQGGYARRVMDGIGEVAVTGAGGSVTGARLRHQVRLLAHALTEAGIPPGRGVACLHANTWRAIALRLAVQAIGCHYVGLRPTAAVTEQARAIAAADSAALVFEPSVEARAADLLERVSVPVVLSLGPTSRGRDILAASVPEGTPLRYREHPEGIASVAFTSGTTGTPKGVAHSSTAMSACVDAAVSMYGRGPWRFLIPSPLSDLGGELAQCTLATGGTVVLLEEFQPDAVLEAIERERATHVFLAPNWLYQLAEHPALPRSDLSSLRRVVYGGAPAVPSRVAAARERMGAVLMQNYGTQEAFFIAALTPDDHARRELLTAVGRPLPHVEVEIRDDSGGTLPRGAVGEVWVRSPMTMSGYWRDPERTAQVLSGGWLRTGDVGTFDEDGHLHLTDRLQDIIIVEAYNVYSLRVEHVLTEHPDVRAAAVVGVPDPDSGEAVCAAVVVADGADPDPEHLRALVRDHLGDLHVPRRVEFVRSIPVTPAGKPDKVKVRTWFTD
conversion (yield) of moclobemide (amide synthetase McbA [1]): 96% | melting point change versus wt-McbA [2]: did not significantly change | increase in catalytic efficiency from wt-McbA (amide synthetase McbA [3]): 42 fold
